Reference: US10590386B2, “Methods and compositions for preparing cardiomyocytes from stem cells and uses thereof” (Insitute of Biophysics, Chinese Academy of Sciences, priority 2010, dated 2020)
“Also recorded” adds a separate entry of the source. Where two headings read alike, the source gives them in different places.

Legend:
Format in all cases: cell-based, human
[1] = tested on: hESC-derived cardiomyocytes; test: Effect of nifedipine on AP duration of hESC-derived cardiomyocytes (patch clamp); conditions: myocytes from Noggin+RA-treated cultures; FIG. 4B right
Experimental: […] to 90 day-old differentiated cultures were washed in a low Ca^2+ solution, and then incubated in an enzyme solution for 20 min at 37° C. The dissociation was completed in KB solution by gently shaking for 40 min at room temperature. The isolated cells were resuspended in DMEM plus 10% FBS, and transferred on 0.1% gelatin-coated glass coverslips, and then kept in an incubator at 37° C., 5% CO2. The composition of the low Ca^2+ solution was (in mM):120 NaCl, 5.4 KCl, 5 MgSO4, 5 Na pyruvate, 20 glucose, 20 taurine, 10 HEPES. The pH was adjusted to 7.3 with NaOH. KB solution contained (in mM): 85 KCl, 30 K2HPO4, 5 MgSO4, 1 EGTA, 2 Na2ATP, 5 Na pyruvate, 20 glucose, 20 taurine, 5 creatine, adjusted to pH 7.3 with KOH.
Action potentials of cardiomyocytes were recorded in a whole-cell patch clamp configuration, using an Axon 200B amplifier (Axon Instruments) at room temperature. Data were digitized at 20 kHz and filtered at 2 kHz, and were analyzed by PClamp 9.0. Patch pipettes (2-4MΩ resistance) were filled with an intracellular solution containing (in mM) 50 KCl, 60 K-Aspartate, 1 MgCl2, 3 Na2ATP, 10 EGTA, 10 mM HEPES, adjusted to pH 7.3 with KOH. Normal Tyrode's solution was used as an extracellular solution and contained (in mM) 140 NaCl, 5 KCl, 1 CaCl2, 1 MgCl2, 10 glucose, 10 HEPES, adjusted to pH 7.4 with NaOH.

hESC line H7 [2] = test: Cardiac differentiation efficiency of hESCs, CTNT antibody staining and flow cytometry on day 14
Experimental: (§1) Undifferentiated hESC line H7 from the WiCell Research Institute was maintained on matrigel-coated plates, as previously described^37. In the basic cardiac induction protocol (BP), undifferentiated hESCs were seeded on gelatin-coated plates at a density of 1-5×10^5 cells/cm^2 and cultured with mouse embryonic fibroblast conditioned medium for 3 days until fully confluent. To initiate cell differentiation, the medium was changed to RPMI1640, supplemented with B27 (Invitrogen). Cells were treated with 25 ng/ml BMP4 and 6 ng/ml bFGF at day 1, 100 ng/ml activin A at day 2, and 200 ng/ml DKK1 (R&D Systems) from day 6 to day 11. The medium was changed every 3 days after day 11 (FIG. 1). 250 ng/ml Noggin, 1 μM RA (Sigma) or 1 μM RAi were added to the cell culture at the times specified in FIGS. 1A-C. Spontaneous beating clusters were typically observed at days 10 to 11. Cardiac differentiation efficiency was analyzed on day 14 with CTNT antibody staining and flow cytometry.
Differentiated cell clusters were dissociated into single cells with 0.25% trypsin-EDTA, which were then fixed and stained with anti-human CTNT antibody (R&D Systems) and goat anti-mouse FITC-conjugated secondary antibody (Santa Cruz) in PBS plus 0.5% BSA and 0.1% saponin (Sigma) at 4° C. Stained cells were kept in 4% paraformaldehyde for subsequent quantitative analysis. Data were collected using FACScalibur (Becton Dickinson) and analyzed with FlowJo software (Treestar).

hESC line H7 [3] = test: Immunostaining and Western blotting of cardiac markers in 60 day-old differentiated cultures
Experimental: as §1
Sixty (60) day-old differentiated cultures were digested with 0.25% trypsin-EDTA, and the cells were plated on gelatin-coated coverslips for 5 days, allowing full attachment to occur. Cells were then fixed in 4% paraformaldehyde, and incubated with primary antibodies of mouse anti-human CTNT (R&D systems), mouse anti-human α-Actinin (Sigma), mouse anti-human β-MHC (ATCC), mouse anti-human MLC-2a (Synaptic Systems), or rabbit anti-human MLC-2v (ProteinTech Group). Goat anti-mouse secondary antibody conjugated with DyLight 488 (Santa Cruz Biotechnology) and goat anti-rabbit secondary antibody conjugated with Tritc (Santa Cruz Biotechnology) were used as needed. After the nuclei were counterstained with 4′,6-diamidino-2-phenylindole (DAPI, Sigma), immunofluorescence images were visualized and recorded using an Olympus microscope system X51 or Olympus LSCM FV1000.
One well of a 24-well plate of 60 day-old differentiated cells was lysed with RIPA lysis buffer (Biomiga) for Western blotting. […]

BMP signaling = test: Western blot for phosphorylated Smad1,5,8; conditions: data not shown
Experimental: One well of a 24-well plate of 60 day-old differentiated cells was lysed with RIPA lysis buffer (Biomiga) for Western blotting. Blots were incubated with mouse anti-human CTNT, mouse anti-human β-MHC, rabbit anti-human MLC-2v, goat anti-ANF, mouse anti-human MLC-2a, mouse anti-human β-actin, rabbit anti-phospho smad1/5/8 and rabbit anti-smad1/5/8 separately, and then with HRP-conjugated goat anti-mouse or anti-rabbit antibody.

Molecule	effect on duration of atrial-like APs [1]	effect on cardiac differentiation efficiency / cardiogenesis of hESCs (summary statement) (hESC line H7 [2])	effect on cardiac differentiation (hESC line H7 [2]; RAi added between days 6 to 9, FIG. 1C)	effect on cardiac differentiation efficiency / cardiogenesis of hESCs (summary statement) (hESC line H7 [2]; listed as BMS-189453)	β-MHC expression (western blots) (hESC line H7 [3]; 60 day old RA and RAi treated cultures (with Noggin), FIG. 6)	effect on cardiac differentiation (hESC line H7 [2]; Noggin present between days 2 and 3, FIG. 1B)	effect on cardiac differentiation (hESC line H7 [2]; Noggin present between days 2.5 and 4.5, FIG. 1B)	effect on cardiac differentiation (hESC line H7 [2]; Noggin present between days 4 and 5, FIG. 1B)	differentiation efficiency (CTNT+ cells, flow cytometry) (hESC line H7 [2]; day 14 cultures, Noggin on days 4 and 5, RAi from days 6 to 8, mean±s.e.m, FIG. 1D)	cTNT positive cells that are also MLC-2v positive (hESC line H7 [3]; 60 day old cultures, immunostaining, FIG. 5)	MLC-2v expression (Western blotting) (hESC line H7 [3]; 60 day-old cultures, FIG. 3C, FIG. 5)	activities of BMP signaling (phosphorylated Smad1,5,8) (BMP signaling)
COC(=O)C1=C(C)NC(C)=C(C(=O)OC)C1c1ccccc1[N+](=O)[O-] [nifedipine]	No significant effect	–	–	–	–	–	–	–	–	–	–	–
CC1(C)CC=C(c2ccccc2)c2cc(/C=C/c3ccc(C(=O)O)cc3)ccc21 [RAi, BMS-189453, reference compound]	–	significantly promote cardiogenesis	markedly increased	significantly increase	evenly expressed	–	–	–	–	–	–	–
Noggin: BMP antagonist protein, added at 250 ng/ml (protein, UniProt Q13253 28-232, looked up) Noggin: QHYLHIRPAPSDNLPLVDLIEHPDPIFDPKEKDLNETLLRSLLGGHYDPGFMATSPPEDRPGGGGGAAGGAEDLAELDQLLRQRPSGAMPSEIKGLEFSEGLAQGKKQRLSKKLRRKLQMWLWSQTFCPVLYAWNDLGSRFWPRYVKVGSCFSKRSCSVPEGMVCKPSKSVHLTVLRWRCQRRGGQRCGWIPIQYPIISECKCSC	–	significantly increase; also recorded: significantly promote cardiogenesis	–	–	–	slightly repressed	significantly promoted	Highest cardiac differentiation efficiencies	50%±3.06%	about 35%	weak MLC-2v expression	reduced the activities of BMP signaling
